One block for each molecule: values may come before it.
Columns and labels:
MBP-His6-GCN4-Dimer = test: SEC-MALS; FPLC coupled with static light scattering; Superose 12 10/300 GL; 50 mM Tris pH 8.2, 100 mM NaCl, 1 mM EDTA, 2 mM DTT; loading concentration not shown
[1] = biological target: the molecule itself; test: SEC-MALS; FPLC coupled with static light scattering; Superose 12 10/300 GL; 50 mM Tris pH 8.2, 100 mM NaCl, 1 mM EDTA, 2 mM DTT; loading concentrations 30 μM and 150 μM

stoichiometry N (MBP-His6-GCN4-Dimer): 2
Molecule: MBP-His6-GCN4-Dimer

B1: PrLD-SAMWT fusion protein (FUS PrLD fused to the Shank3 SAM domain; MBP-PrLD-SAMWT-GB1) (other, UniProt P56959 1-212, looked up)
chain: CMASNDYTQQATQSYGAYPTQPGQGYSQQSSQPYGQQSYSGYGQSADTSGYGQSSYGSSYGQTQNTGYGTQSAPQGYGSTGGYGSSQSSQSSYGQQSSYPGYGQQPAPSSTSGSYGGSSQSSSYGQPQSGGYGQQSGYGGQQQSYGQQQSSYNPPQGYGQQNQYNSSSGGGGGGGGGNYGQDQSSMSGGGGGGGYGNQDQSGGGGGGYGGGQQGPRRPFQQKPLQLWSKFDVGDWLESIHLGEHRDRFEDHEIEGAHLPALTKEDFVELGVTRVGHRMNIERALRQLDGS
notes: FUS prion-like domain (PrLD), UniProt P56959, segment 1-212; SAM domain of Shank3 (aa 1654-1730), UniProt Q4ACU6, fused to the C-terminal end of PrLD; The light-scattering legend calls it only 'PrLD-SAMWT fusion protein (theoretical MW 80.7 kDa)'; also called PrLD-SAM chimera; source: E. coli BL21 (DE3), purified (Ni2+-NTA, size-exclusion chromatography); not shown: MBP, N-terminal, kept; GB1, …
binding result [1]: binds
